# Publication PMC9482650, “Quantitative fragmentomics allow affinity mapping of interactomes” (Nature Communications, 2022)
# T1: APBA1_2, Q02410
# T1 sequence (Q02410 742-832, limits assumed, looked up): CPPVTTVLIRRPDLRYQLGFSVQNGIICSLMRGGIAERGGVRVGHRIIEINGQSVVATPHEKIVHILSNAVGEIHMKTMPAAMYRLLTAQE
# T2: CARD11, Q9BXL7
# T2 sequence (Q9BXL7 662-765, limits assumed, looked up): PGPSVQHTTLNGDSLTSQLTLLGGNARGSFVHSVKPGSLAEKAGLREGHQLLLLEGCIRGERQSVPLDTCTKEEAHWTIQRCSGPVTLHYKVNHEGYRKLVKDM
# T3: LRRC7, Q96NW7
# T3 sequence (Q96NW7 1440-1537, limits assumed, looked up): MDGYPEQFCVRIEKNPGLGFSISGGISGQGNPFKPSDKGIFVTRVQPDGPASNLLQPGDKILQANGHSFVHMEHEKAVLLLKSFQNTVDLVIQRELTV
# T4: MPP6, Q9NZW5
# T4 sequence (Q9NZW5 125-219, limits assumed, looked up): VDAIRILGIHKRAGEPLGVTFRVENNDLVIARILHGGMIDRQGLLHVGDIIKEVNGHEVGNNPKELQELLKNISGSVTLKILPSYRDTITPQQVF
# T5: NHERF3_1, Q5T2W1
# T5 sequence (Q5T2W1 4-100, limits assumed, looked up): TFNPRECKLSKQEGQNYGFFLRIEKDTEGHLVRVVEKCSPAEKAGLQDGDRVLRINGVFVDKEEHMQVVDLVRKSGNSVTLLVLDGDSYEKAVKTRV
# T6: NHERF3_3, Q5T2W1
# T6 sequence (Q5T2W1 238-333, limits assumed, looked up): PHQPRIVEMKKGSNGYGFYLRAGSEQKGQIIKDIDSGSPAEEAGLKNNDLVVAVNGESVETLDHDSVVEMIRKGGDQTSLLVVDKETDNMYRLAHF
# T7: PARD3B_1, Q8TEW8
# T7 sequence (Q8TEW8 196-299, limits assumed, looked up): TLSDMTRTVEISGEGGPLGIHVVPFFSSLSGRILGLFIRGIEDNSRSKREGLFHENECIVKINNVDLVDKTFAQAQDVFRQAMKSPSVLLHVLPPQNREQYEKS
# T8: SNTG1, Q9NSN8
# T8 sequence (Q9NSN8 52-150, limits assumed, looked up): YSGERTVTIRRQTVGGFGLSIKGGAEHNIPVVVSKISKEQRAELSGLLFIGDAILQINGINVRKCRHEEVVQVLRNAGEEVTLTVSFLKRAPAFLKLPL
# T9: SNTG2, Q9NY99
# T9 sequence (Q9NY99 68-166, limits assumed, looked up): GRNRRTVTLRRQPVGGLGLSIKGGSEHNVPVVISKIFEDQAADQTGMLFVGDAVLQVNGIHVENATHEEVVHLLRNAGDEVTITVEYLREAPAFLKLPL
# B1: ADRA1D, P25100 (peptide)
# chain: DYSNLRETDI
# B2: TMEM178A, Q8NBL3 (peptide)
# chain: QLKSGRDSTV
# B3: HPV33-E6_-2P, P06427 (peptide)
# chain: SRSRRRETAL
# How the values were obtained:
# Test in all cases: holdup assay
# Parameters in all cases: key: below the threshold = too weak to quantify, mostly under pKd 3.1 to 4
# AHNAK1, Q09666 = molecular target: AHNAK1, Q09666
# APBA1_2, Q02410 = molecular target: T1, APBA1_2, Q02410
# CARD11, Q9BXL7 = molecular target: T2, CARD11, Q9BXL7
# DLG1_3, Q12959 = molecular target: DLG1_3, Q12959
# DLG2_2, Q15700 = molecular target: DLG2_2, Q15700
# DLG5_1, Q8TDM6 = molecular target: DLG5_1, Q8TDM6
# GRASP, Q7Z6J2 = molecular target: GRASP, Q7Z6J2
# GRIP2_6, Q9C0E4 = molecular target: GRIP2_6, Q9C0E4
# IL16_1, Q14005 = molecular target: IL16_1, Q14005
# IL16_4, Q14005 = molecular target: IL16_4, Q14005
# Inadl_3, Q8NI35 = molecular target: Inadl_3, Q8NI35
# LDB3, O75112 = molecular target: LDB3, O75112
# LIMK2, P53671 = molecular target: LIMK2, P53671
# LNX1_1, Q8TBB1 = molecular target: LNX1_1, Q8TBB1
# LRRC7, Q96NW7 = molecular target: T3, LRRC7, Q96NW7
# MAGI2_3, Q86UL8 = molecular target: MAGI2_3, Q86UL8
# MPP6, Q9NZW5 = molecular target: T4, MPP6, Q9NZW5
# NHERF3_1, Q5T2W1 = molecular target: T5, NHERF3_1, Q5T2W1
# NHERF3_3, Q5T2W1 = molecular target: T6, NHERF3_3, Q5T2W1
# NHERF4_4, Q86UT5 = molecular target: NHERF4_4, Q86UT5
# PARD3B_1, Q8TEW8 = molecular target: T7, PARD3B_1, Q8TEW8
# PICK1, Q9NRD5 = molecular target: PICK1, Q9NRD5
# PTPN3, P26045 = molecular target: PTPN3, P26045
# SCRIB_1, Q14160 = molecular target: SCRIB_1, Q14160
# SCRIB_3, Q14160 = molecular target: SCRIB_3, Q14160
# SNTG1, Q9NSN8 = molecular target: T8, SNTG1, Q9NSN8
# SNTG2, Q9NY99 = molecular target: T9, SNTG2, Q9NY99
# TJP1_3, Q07157 = molecular target: TJP1_3, Q07157
# [1] = plain residues with an end cap or a label only (N-terminal biotin on a linker: ado-ado)
# [2] = modified: phospho on T at position -2 from the C-terminal residue
# TJP1_3, Q07157, sequence (Q07157 416-512): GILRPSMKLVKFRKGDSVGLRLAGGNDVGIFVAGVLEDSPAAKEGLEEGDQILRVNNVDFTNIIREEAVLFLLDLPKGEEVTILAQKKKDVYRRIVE
# DLG1_3, Q12959, sequence (Q12959 457-571): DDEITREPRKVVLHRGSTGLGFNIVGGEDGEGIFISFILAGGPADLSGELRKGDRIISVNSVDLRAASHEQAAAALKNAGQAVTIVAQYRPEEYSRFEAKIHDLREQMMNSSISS
# PTPN3, P26045, sequence (P26045 505-587): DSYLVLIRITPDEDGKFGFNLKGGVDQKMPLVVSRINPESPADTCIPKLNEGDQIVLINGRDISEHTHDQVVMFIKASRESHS
# DLG2_2, Q15700, sequence (Q15700 189-283): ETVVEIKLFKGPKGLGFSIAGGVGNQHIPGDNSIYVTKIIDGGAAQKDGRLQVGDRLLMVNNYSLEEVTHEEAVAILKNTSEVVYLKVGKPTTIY
# LNX1_1, Q8TBB1, sequence (Q8TBB1 261-371): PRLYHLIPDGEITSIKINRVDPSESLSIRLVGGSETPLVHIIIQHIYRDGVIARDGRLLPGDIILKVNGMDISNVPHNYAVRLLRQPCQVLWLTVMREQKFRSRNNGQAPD
# Inadl_3, Q8NI35, sequence (Q8NI35 359-469): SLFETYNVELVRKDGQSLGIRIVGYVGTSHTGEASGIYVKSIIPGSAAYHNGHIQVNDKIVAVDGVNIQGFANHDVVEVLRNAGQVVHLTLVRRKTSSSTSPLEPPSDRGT
# AHNAK1, Q09666, sequence (Q09666 4-100): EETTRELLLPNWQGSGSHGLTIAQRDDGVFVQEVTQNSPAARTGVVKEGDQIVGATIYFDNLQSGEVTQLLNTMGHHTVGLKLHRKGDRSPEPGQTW
# SCRIB_3, Q14160, sequence (Q14160 999-1103): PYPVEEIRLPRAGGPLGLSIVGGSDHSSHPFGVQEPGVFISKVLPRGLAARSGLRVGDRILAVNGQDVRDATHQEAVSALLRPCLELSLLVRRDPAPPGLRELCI
# DLG5_1, Q8TDM6, sequence (Q8TDM6 617-713): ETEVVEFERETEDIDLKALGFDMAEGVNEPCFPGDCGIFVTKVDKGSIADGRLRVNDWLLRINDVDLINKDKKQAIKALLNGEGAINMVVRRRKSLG
# SCRIB_1, Q14160, sequence (Q14160 718-814): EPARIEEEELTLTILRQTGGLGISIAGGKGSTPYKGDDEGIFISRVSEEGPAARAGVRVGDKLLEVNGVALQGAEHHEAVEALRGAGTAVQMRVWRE
# LIMK2, P53671, sequence (P53671 143-248): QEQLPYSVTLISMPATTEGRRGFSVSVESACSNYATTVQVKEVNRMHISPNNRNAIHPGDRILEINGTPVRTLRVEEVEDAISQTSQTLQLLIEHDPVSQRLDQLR
# MAGI2_3, Q86UL8, sequence (Q86UL8 600-682): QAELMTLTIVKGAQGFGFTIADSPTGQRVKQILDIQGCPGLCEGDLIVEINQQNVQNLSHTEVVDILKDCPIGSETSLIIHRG
# IL16_1, Q14005, sequence (Q14005 210-306): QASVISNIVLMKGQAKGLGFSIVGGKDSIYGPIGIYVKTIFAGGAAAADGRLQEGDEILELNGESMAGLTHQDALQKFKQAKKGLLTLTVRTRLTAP
# PICK1, Q9NRD5, sequence (Q9NRD5 17-115): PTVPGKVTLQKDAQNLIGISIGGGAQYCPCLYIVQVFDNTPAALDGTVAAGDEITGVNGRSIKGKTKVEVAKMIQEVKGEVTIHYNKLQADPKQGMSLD
# LDB3, O75112, sequence (O75112 1-94): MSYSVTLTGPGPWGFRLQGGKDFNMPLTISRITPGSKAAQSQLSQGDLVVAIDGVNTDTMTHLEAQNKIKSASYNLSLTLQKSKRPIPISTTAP
# IL16_4, Q14005, sequence (Q14005 1229-1329): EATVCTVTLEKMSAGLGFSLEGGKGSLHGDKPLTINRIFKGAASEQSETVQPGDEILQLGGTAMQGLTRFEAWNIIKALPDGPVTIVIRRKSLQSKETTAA
# GRIP2_6, Q9C0E4, sequence (Q9C0E4 648-740): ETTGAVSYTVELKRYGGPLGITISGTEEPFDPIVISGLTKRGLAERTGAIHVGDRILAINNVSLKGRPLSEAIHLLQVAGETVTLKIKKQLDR
# GRASP, Q7Z6J2, sequence (Q7Z6J2 96-193): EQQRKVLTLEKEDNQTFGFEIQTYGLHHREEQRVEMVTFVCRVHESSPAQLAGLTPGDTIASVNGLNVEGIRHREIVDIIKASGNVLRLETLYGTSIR
# NHERF4_4, Q86UT5, sequence (Q86UT5 464-550): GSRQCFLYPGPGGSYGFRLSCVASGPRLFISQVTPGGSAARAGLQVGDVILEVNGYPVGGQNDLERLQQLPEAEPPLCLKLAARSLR
binder,measurement,setting,value
B1,pKd,"AHNAK1, Q09666; [1]",below the threshold
same,pKd,"APBA1_2, Q02410; [1]",below the threshold
same,pKd,"CARD11, Q9BXL7; [1]",below the threshold
same,pKd,"DLG1_3, Q12959; [1]",below the threshold
same,pKd,"DLG2_2, Q15700; [1]",4.35
same,pKd,"DLG5_1, Q8TDM6; [1]",3.5
same,pKd,"GRASP, Q7Z6J2; [1]",below the threshold
same,pKd,"GRIP2_6, Q9C0E4; [1]",below the threshold
same,pKd,"IL16_1, Q14005; [1]",3.59
same,pKd,"IL16_4, Q14005; [1]",below the threshold
same,pKd,"Inadl_3, Q8NI35; [1]",3.84
same,pKd,"LDB3, O75112; [1]",below the threshold
same,pKd,"LIMK2, P53671; [1]",below the threshold
same,pKd,"LNX1_1, Q8TBB1; [1]",4.44
same,pKd,"LRRC7, Q96NW7; [1]",3.48
same,pKd,"MAGI2_3, Q86UL8; [1]",below the threshold
same,pKd,"MPP6, Q9NZW5; [1]",3.63
same,pKd,"NHERF3_1, Q5T2W1; [1]",below the threshold
same,pKd,"NHERF3_3, Q5T2W1; [1]",below the threshold
same,pKd,"NHERF4_4, Q86UT5; [1]",below the threshold
same,pKd,"PARD3B_1, Q8TEW8; [1]",below the threshold
same,pKd,"PICK1, Q9NRD5; [1]",4.1
same,pKd,"PTPN3, P26045; [1]",4.57
same,pKd,"SCRIB_1, Q14160; [1]",4.95
same,pKd,"SCRIB_3, Q14160; [1]",5.27
same,pKd,"SNTG1, Q9NSN8; [1]",5.55
same,pKd,"SNTG2, Q9NY99; [1]",5.05
same,pKd,"TJP1_3, Q07157; [1]",below the threshold
B2,pKd,"AHNAK1, Q09666; [1]",3.55
same,pKd,"APBA1_2, Q02410; [1]",3.63
same,pKd,"CARD11, Q9BXL7; [1]",below the threshold
same,pKd,"DLG1_3, Q12959; [1]",3.85
same,pKd,"DLG2_2, Q15700; [1]",4.4
same,pKd,"DLG5_1, Q8TDM6; [1]",3.83
same,pKd,"GRASP, Q7Z6J2; [1]",3.56
same,pKd,"GRIP2_6, Q9C0E4; [1]",3.49
same,pKd,"IL16_1, Q14005; [1]",below the threshold
same,pKd,"IL16_4, Q14005; [1]",3.83
same,pKd,"Inadl_3, Q8NI35; [1]",below the threshold
same,pKd,"LDB3, O75112; [1]",below the threshold
same,pKd,"LIMK2, P53671; [1]",below the threshold
same,pKd,"LNX1_1, Q8TBB1; [1]",below the threshold
same,pKd,"LRRC7, Q96NW7; [1]",below the threshold
same,pKd,"MAGI2_3, Q86UL8; [1]",below the threshold
same,pKd,"MPP6, Q9NZW5; [1]",3.8
same,pKd,"NHERF3_1, Q5T2W1; [1]",below the threshold
same,pKd,"NHERF3_3, Q5T2W1; [1]",below the threshold
same,pKd,"NHERF4_4, Q86UT5; [1]",3.74
same,pKd,"PARD3B_1, Q8TEW8; [1]",below the threshold
same,pKd,"PICK1, Q9NRD5; [1]",4.35
same,pKd,"PTPN3, P26045; [1]",4.4
same,pKd,"SCRIB_1, Q14160; [1]",3.56
same,pKd,"SCRIB_3, Q14160; [1]",3.48
same,pKd,"SNTG1, Q9NSN8; [1]",3.81
same,pKd,"SNTG2, Q9NY99; [1]",3.77
same,pKd,"TJP1_3, Q07157; [1]",3.5
B3,pKd,"AHNAK1, Q09666; [2]",below the threshold
same,pKd,"APBA1_2, Q02410; [2]",below the threshold
same,pKd,"CARD11, Q9BXL7; [2]",below the threshold
same,pKd,"DLG1_3, Q12959; [2]",below the threshold
same,pKd,"DLG2_2, Q15700; [2]",below the threshold
same,pKd,"DLG5_1, Q8TDM6; [2]",below the threshold
same,pKd,"GRASP, Q7Z6J2; [2]",below the threshold
same,pKd,"GRIP2_6, Q9C0E4; [2]",below the threshold
same,pKd,"IL16_1, Q14005; [2]",below the threshold
same,pKd,"IL16_4, Q14005; [2]",below the threshold
same,pKd,"Inadl_3, Q8NI35; [2]",below the threshold
same,pKd,"LDB3, O75112; [2]",below the threshold
same,pKd,"LIMK2, P53671; [2]",below the threshold
same,pKd,"LNX1_1, Q8TBB1; [2]",below the threshold
same,pKd,"LRRC7, Q96NW7; [2]",below the threshold
same,pKd,"MAGI2_3, Q86UL8; [2]",below the threshold
same,pKd,"MPP6, Q9NZW5; [2]",3.68
same,pKd,"NHERF3_1, Q5T2W1; [2]",below the threshold
same,pKd,"NHERF3_3, Q5T2W1; [2]",below the threshold
same,pKd,"NHERF4_4, Q86UT5; [2]",below the threshold
same,pKd,"PARD3B_1, Q8TEW8; [2]",below the threshold
same,pKd,"PICK1, Q9NRD5; [2]",below the threshold
same,pKd,"PTPN3, P26045; [2]",4.02
same,pKd,"SCRIB_1, Q14160; [2]",below the threshold
same,pKd,"SCRIB_3, Q14160; [2]",below the threshold
same,pKd,"SNTG1, Q9NSN8; [2]",below the threshold
same,pKd,"SNTG2, Q9NY99; [2]",below the threshold
same,pKd,"TJP1_3, Q07157; [2]",below the threshold
